Results from the supplement of paper PMC9170038.

System: MS2 coat protein
Assay: apparent KD of MS2 coat protein; designed switch direction (-1 OFF switch, 1 ON switch): -1; higher = weaker reporter binding
Outline: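 Stalled E. coli RNA polymerase transcribed designed RNA switches on Illumina chips, which were then titrated with SNAP-549-labelled MS2 coat protein, doubling from 0.7 or 1.5 nM to 3 µM. Steps lasted from 0.8–1.5 h at the lowest concentration to 10–20 min at the highest. The apparent KD is each design's median over clusters of curve-fitted normalised fluorescence.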

[1] = input ligand: microRNA oligo, concentration not stated
[2] = Eterna round: R95, input ligand: microRNA oligo, concentration not stated
[3] = Eterna round: R95, input ligand: FMN 200 uM
[4] = Eterna round: R95, input ligand: none

| Sequence | apparent KD of MS2 coat protein (input ligand: FMN 200 uM) | apparent KD of MS2 coat protein (input ligand: none) | apparent KD of MS2 coat protein [1] | apparent KD of MS2 coat protein [2] | apparent KD of MS2 coat protein [3] | apparent KD of MS2 coat protein [4] |
| --- | --- | --- | --- | --- | --- | --- |
| GCACUGCGAGGAUAUACAUGAGGAUCACCCAUGUGUCGGCAGACUUGUUUGGUCUAAGGUAGAAGGCGCGUAAA [JR_Ex3_Sub003] (Eterna round: R97, puzzle: Exclusion 3) | 0.145 µM | 0.0397 µM |  |  |  |  |
| GCACUGCGAGGAUAUACAUGAGGAUCACCCAUGUGUCGGCAGCCACGGUAGCACGAGUGUAGAAGGCGCGUUAG [EX3 #45] (Eterna round: R97, puzzle: Exclusion 3) | 0.146 µM | 0.0312 µM |  |  |  |  |
| GCAGCAUAGUCGGAAUACGACAUACAUGAGGAUCACCCAUGUCAGGAUAUGGUCUGGAUUACAGGCCAGAAGGGACAAAGCUGC [Eli exng3 - 007] (Eterna round: R96, puzzle: Exclusion NG 3) | 0.0248 µM | 0.0201 µM | 0.0171 µM |  |  |  |
| GCAGCAUAUGUAGGAUAUCUGCACGAUUAGUGCAGAGAAGGACAUGAGGAUCACCCAUGUAAUUAAGAUCAAUUAUUAAGCUGC [ENG1/4-A1] (Eterna round: R96, puzzle: Exclusion NG 1) | 0.0333 µM | 0.0228 µM | 0.0156 µM |  |  |  |
| GCAGCGUAUGUAGGAUAUCGGUCAGUUUCUGAUCGAGAAGGACAUGAGGAUCACCCAUGUAUAUUCCGUCGUGAGACGGGCUGC [JL ENG1 3.69] (Eterna round: R96, puzzle: Exclusion NG 1) | 0.0236 µM | 0.0184 µM | 0.0143 µM |  |  |  |
| GCAGGAUAAGUGAGGAUAUACCUCUGGAUACAGAGGUAGAAGGCACAUGAGGAUCACCCAUGUCUAUAACCUGC [Fiskers BMX 4 - 79] (puzzle: Brourd's mod of Exclusion 4) |  |  |  | 0.0125 µM |  |  |
| GCAGGUUAAGUCAGGAUAUACCUAUGGAUACAUAGGUAGAAGGGACAUGAGGAUCACCCAUGUGACUCACCUGC [Fiskers BMX 4 - 59] (puzzle: Brourd's mod of Exclusion 4) |  |  |  | 0.0251 µM |  |  |
| GCAUGCUGAGUUAGGAUAUGCUAGCGUUGCCGCUAGCAGAAGGAACAUGAGGAUCACCCAUGUUAGCAUGCAGU [eternacac ex4r4 #2] (Eterna round: R97, puzzle: Brourd's mod of Exclusion 4) | 0.016 µM | 0.014 µM |  |  |  |  |
| GCAUGGAAAGUGAGGAUAUACCACUGGAUACAGUGGUAGAAGGCACAUGAGGAUCACCCAUGUUCCUACCAUGC [Fiskers BMX 4 - 39] (puzzle: Brourd's mod of Exclusion 4) |  |  |  | 0.015 µM |  |  |
| GCAUUCUGAGGAUAUACAUGAGGAUCACCCAUGUUGAGAAAUAAGAAUAAGUACUUAAGUAGAAGGCAGAGUGC [JR_Ex3_Sub074] (Eterna round: R97, puzzle: Exclusion 3) | 0.0616 µM | 0.0158 µM |  |  |  |  |
| GCCACCACAUGAGGAUCAAACAUGAGGAUCACCCAUGUAUAACAAGCUUUUUGCUCGUCUUAUAAAUAUGUGGUGGC [Electric Eye 4 - Jieux - Sensor, turn-off variant 1] (Eterna round: R97, puzzle: Sensor, turn-off variant 1) | 0.014 µM | 0.0153 µM |  |  |  |  |
| GCCAGAGCAGGAUAUUCAGUAUCACACAUGAGGAUCACCCAUGUCCACGGAAACGUGGAGGGAGAAGGGCUCUGGC [Mat - Exclusion 5 - Eli mod - D96] (puzzle: Exclusion 5) |  |  |  | 0.126 µM | 0.0356 µM | 0.157 µM |
| GCCCAGCUAGGAUAUCGCACUGCAGACAUGAGGAUCACCCAUGUGAUGAGGUCUGAAUUCCGAGAAGGAGCAUGGA [Isedzaqu] (puzzle: Exclusion 5) |  |  |  | 0.0221 µM | 0.0666 µM | 0.0267 µM |
